In publication PMC4201622:

Columns and labels:
[1] = molecular target: RPA heterotrimer (RPA70/RPA32/RPA14), full length (UniProt P27694;P15927;P35244 1-616;1-270;1-121); experiment: EMSA
[2] = molecular target: RPA70 DBD-F (N-terminal domain) fused to MBP (UniProt P27694 1-120); experiment: EMSA
Chain of RPA70 DBD-F (N-terminal domain) fused to MBP (P27694 1-120): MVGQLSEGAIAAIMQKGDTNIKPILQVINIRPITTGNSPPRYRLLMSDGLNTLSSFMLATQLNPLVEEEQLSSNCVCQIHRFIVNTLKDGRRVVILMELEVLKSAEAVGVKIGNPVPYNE

Chain of RPA heterotrimer (RPA70/RPA32/RPA14), full length (P27694 whole entry, chain 1 of 3, the tested form may be a part): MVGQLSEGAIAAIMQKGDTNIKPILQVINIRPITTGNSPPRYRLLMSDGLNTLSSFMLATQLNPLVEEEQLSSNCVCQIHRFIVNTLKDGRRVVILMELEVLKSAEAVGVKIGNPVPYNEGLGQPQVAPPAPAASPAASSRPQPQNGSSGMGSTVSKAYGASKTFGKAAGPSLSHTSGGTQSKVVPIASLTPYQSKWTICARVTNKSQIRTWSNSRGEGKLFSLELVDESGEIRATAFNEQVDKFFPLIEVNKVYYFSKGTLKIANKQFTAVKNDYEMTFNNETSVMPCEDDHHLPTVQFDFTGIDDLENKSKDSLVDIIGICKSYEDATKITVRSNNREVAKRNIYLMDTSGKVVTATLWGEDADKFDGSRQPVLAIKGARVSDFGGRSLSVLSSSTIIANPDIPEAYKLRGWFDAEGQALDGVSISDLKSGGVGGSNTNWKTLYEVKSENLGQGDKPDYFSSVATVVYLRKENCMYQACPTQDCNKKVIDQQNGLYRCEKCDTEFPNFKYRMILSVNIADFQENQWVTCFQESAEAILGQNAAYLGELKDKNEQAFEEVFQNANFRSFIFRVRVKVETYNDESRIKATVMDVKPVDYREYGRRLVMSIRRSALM
Chain of RPA heterotrimer (RPA70/RPA32/RPA14), full length (P15927 whole entry, chain 2 of 3, the tested form may be a part): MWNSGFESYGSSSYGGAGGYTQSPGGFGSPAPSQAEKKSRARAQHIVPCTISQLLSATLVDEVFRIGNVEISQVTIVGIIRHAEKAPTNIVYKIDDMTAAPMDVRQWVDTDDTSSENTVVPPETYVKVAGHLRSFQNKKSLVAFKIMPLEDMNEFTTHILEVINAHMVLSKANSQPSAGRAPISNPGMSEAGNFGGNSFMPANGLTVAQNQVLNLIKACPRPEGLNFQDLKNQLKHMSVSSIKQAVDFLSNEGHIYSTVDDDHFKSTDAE
Chain of RPA heterotrimer (RPA70/RPA32/RPA14), full length (P35244 whole entry, chain 3 of 3, the tested form may be a part): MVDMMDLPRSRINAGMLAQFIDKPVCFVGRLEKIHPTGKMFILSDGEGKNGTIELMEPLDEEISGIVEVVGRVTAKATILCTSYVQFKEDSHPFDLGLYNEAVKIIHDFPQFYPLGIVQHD

TTTTTTTTTTTTTTTTTTTTTTTTTTTTTT (ssDNA) [polyT 30mer]: binds [1]; binds [2].
